The record followed here is ChEMBL document CHEMBL4706520, “Development of disulfide-derived fructose-1,6-bisphosphatase (FBPase) covalent inhibitors for the treatment of type 2 diabetes” (Eur J Med Chem, 2020).

Compound in this series: c1csc(SSc2nccs2)n1
Put plainly: Covalent inhibition of FBPase WT (unknown origin) assessed as Vmax measured at 45 mins. Conditions: Homo sapiens.

B1: Fructose-1,6-bisphosphatase 1 (Homo sapiens), P09467 (protein)
chain: MADQAPFDTDVNTLTRFVMEEGRKARGTGELTQLLNSLCTAVKAISSAVRKAGIAHLYGIAGSTNVTGDQVKKLDVLSNDLVMNMLKSSFATCVLVSEEDKHAIIVEPEKRGKYVVCFDPLDGSSNIDCLVSVGTIFGIYRKKSTDEPSEKDALQPGRNLVAAGYALYGSATMLVLAMDCGVNCFMLDPAIGEFILVDKDVKIKKKGKIYSLNEGYARDFDPAVTEYIQRKKFPPDNSAPYGARYVGSMVADVHRTLVYGGIFLYPANKKSPNGKLRLLYECNPMAYVMEKAGGMATTGKEAVLDVIPTDIHQRAPVILGSPDDVLEFLKVYEKHSAQ
For B1, the Vmax was found to be 4 U/mg.
